In test [1] the test system is PBMCs from HLA-A*02+ healthy donors. In words: IFN-γ ELISPOT of CTLs induced in vitro. The format is cell-based, human. To be noted: PBMCs stimulated with MTA1(1–283) once a week for 21 days; stimulators T2 cells with peptide pool 50 μg/ml; n = 4. As to the method:
(§1) CTL induction in vitro was conducted according to the procedures previously described. Briefly, PBMCs from eight HLA-A^∗02^+ healthy donors were isolated using Ficoll-Paque density gradient centrifugation and resuspended in RPMI 1640 medium supplemented with 10% FBS. Then, PBMCs were stimulated three times (once a week) with the indicated peptides (10 μg/ml) or protein MTA1(1–283) (at final concentrations of 0, 1, 10, 30, and 50 μg/ml) for 21 days. Human recombinant cytokine interleukin-2 (IL-2) (50 U/ml) was added on day 3 and 1 day after each stimulation. The cytotoxic assay (lactate dehydrogenase (LDH) assay) and IFN-γ secretion enzyme-linked immunospot (ELISPOT) assay were performed on day 21.
The ELISPOT assay was performed using a commercial kit (Dakewe, China) according to the procedures previously described. Briefly, T2 cells incubated with/without candidate peptide (50 μg/ml) were used as the stimulating cells, effector cells (1 × 10^5) and stimulator cells (peptide-pulsed T2 cells or T2 cells only, 1 × 10^5) were seeded into the 96-well plate precoated with an anti-human (or anti-mouse) IFN-γ antibody. After incubation at 37°C for 18 h, cells were removed, and plates were processed for analysis as instructed. The spot number was determined automatically using a computer-assisted spot analyzer (Dakewe, China).

Another test deals with SW620 (HLA-A2+, MTA1+). In words: LDH cytotoxicity assay, CTLs induced in vitro. The format is cell-based, human. To be noted: PBMCs induced by 50 μg/ml MTA1(1–283); E/T 50 : 1; LDH assay; n = 4. How it is done:
as §1
(§2) Cytotoxic activity of induced T cells was tested based on the quantitation of LDH release using the nonradioactive cytotoxicity assay kit (Promega, USA) at the gradient E/T ratio [29, 31]. Target cells which expressed different levels of MTA1 or peptide-pulsed T2 cells were used as target cells. The anti-human HLA-A2 antibody (BB7.2) was added 30 min before adding effector cells to determine the HLA restriction. Target cells (5 × 10^3/well) were cocultured with the effector cells at 37°C for 4 h. The percentage of specific lysis of the target cells was determined using the equation: percentage of specific lysis = [(experimental release − effector spontaneous release − target spontaneous release)/(target maximum release − target spontaneous release)] × 100.

The test system of test [2] is SW620 cells (HLA-A2+, MTA1+). The experiment in a line: LDH cytotoxicity assay, CTLs induced in HLA-A2.1/Kb transgenic mice. The format is in vivo, human. The conditions noted are these: mice immunized with MTA1(1–283) days 0 and 7; E/T 50 : 1 and 25 : 1; significant vs PBS. As to the method: In vivo induction of peptide-specific CTLs was performed as previously described. Briefly, peptide (100 μg) and the IA^b-restricted HBV-core128 T helper epitope (140 μg) emulsified in incomplete Freund's adjuvant (IFA) were used to subcutaneously immunize at the base of the tail of HLA-A2.1/K^b transgenic mice three times on days 0, 5, and 10. On day 11, all mice were sacrificed through cervical dislocation. Spleen lymphocytes were isolated and restimulated once with 10 μg/ml peptide and 10 U/ml mIL-2 in vitro for an additional 6 days. LDH and IFN-γ ELISPOT assays were performed on day 6 after in vitro stimulation. […]
(§3) To test the effects of protein, each HLA-A2.1/K^b transgenic mouse was injected subcutaneously at the base of the tail with 100 μg MTA1(1–283) or the same volume of PBS emulsified in IFA twice on days 0 and 7. On day 14, spleen lymphocytes were harvested and stimulated by peptide pool (10 μg/ml) in vitro for another 6 days. LDH, IFN-γ ELISPOT, and IFN-γ intracellular cytokine staining assays were performed on day 6 after the in vitro stimulation. E/T ratios used in the LDH assay were 12.5 : 1, 25 : 1, and 50 : 1.
as §2

Test [3] has as its system HLA-A2.1/K^b transgenic mice. In words: Serum IFN-γ ELISA after immunization. The conditions noted are these: mice immunized with 100 μg/ml MTA1(1–283) in IFA days 0 and 7; serum day 14; vs PBS, P < 0.001; n = 5. The format is in vivo.
Test [4] deals with HLA-A2.1/K^b transgenic mice. In words: IFN-γ intracellular cytokine staining, CD8+ T cells. Format: in vivo. To be noted: mice immunized with MTA1(1–283); splenocytes restimulated with peptide pool; T2 cells pulsed with each peptide; vs PBS, P < 0.001. As to the method: as §3
(§4) To test the protein MTA1(1–283) stimulation of CTL response in vivo, IFN-γ release of induced CTLs was determined by the intracellular cytokine staining assay according to our former study. In brief, on day 14, spleen lymphocytes were harvested and stimulated by peptide pool (10 μg/ml) in vitro for another 6 days. Then, restimulated splenocytes were incubated with peptide-loaded T2 cells or T2 cells only for 3 h. Subsequently, protein transport inhibitor cocktail was added to splenocytes for another 4 h. Then, those cells were stained with Anti-mouse CD3 PerCP-eFluor® 710 (clone: 17A2, eBioscience) and Anti-mouse CD8α PE (clone: 53–6.7, eBioscience) at 4°C for 30 min. […] Those cells were washed twice by permeabilization buffer and analyzed by flow cytometry.

Test [5] concerns HLA-A2.1/K^b transgenic mice. The experiment in a line: IFN-γ intracellular cytokine staining, CD4+ T cells. Format: in vivo. The conditions noted are these: mice immunized with MTA1(1–283); CD3+CD8− subset. How it is done: as §3, §4

B1: MTA1(1–283): recombinant fragment of MTA1, first 283 amino acids, expressed in E. coli from pET28a, containing the predominant epitopes (protein, UniProt Q13330 1-283, looked up, fragment)
chain: MAANMYRVGDYVYFENSSSNPYLIRRIEELNKTANGNVEAKVVCFYRRRDISSTLIALADKHATLSVCYKAGPGADNGEEGEIEEEMENPEMVDLPEKLKHQLRHRELFLSRQLESLPATHIRGKCSVTLLNETESLKSYLEREDFFFYSLVYDPQQKTLLADKGEIRVGNRYQADITDLLKEGEEDGRDQSRLETQVWEAHNPLTDKQIDQFLVVARSVGTFARALDCSSSVRQPSLHMSAAAASRDITLFHAMDTLHKNIYDISKAISALVPQGGPVLCRD
As to B1, in test [1], the “IFN-γ secretion of protein-induced CTLs, ELISPOT” value was “can secrete IFN-γ”. Besides, in the test with SW620 (HLA-A2+, MTA1+), the “rate of lysis of SW620 cells by protein-induced CTLs” value was determined as 50.01%. The “lysis of SW620 tumor cells by T cells induced in vivo by protein” value in test [2] was “could kill SW620 tumor cells”. The “IFN-γ secretion in vivo (serum IFN-γ, ELISA)” value in test [3] is “secreted more IFN-γ compared with the PBS control group”. The “percentage of IFN-γ+ CD8+ T cells” value in test [4] is on record as “a higher percentage of IFN-γ ^+ CD8^+ T cells compared with the PBS group”. The “percentage of IFN-γ+ CD4+ T cells” value in test [5] is listed as “a certain percentage of IFN-γ ^+ CD4^+ T cells”.
